Our source for the % parasite recognition values is patent publication US20180186897A1 (INSTITUTE FOR RESEARCH IN BIOMEDICINE, published 2018).

Assay in all cases: flow cytometry, staining of IEs
The target of assay [1] is erythrocytes infected with P. falciparum field isolate 10975.
Assay [2] addresses erythrocytes infected with P. falciparum field isolate 11014.
Assay [3] deals with erythrocytes infected with P. falciparum field isolate 9215.
The target of assay [4] is erythrocytes infected with P. falciparum field isolate 9106.
In assay [5] the target is erythrocytes infected with P. falciparum field isolate 11019.
The target of assay [6] is erythrocytes infected with P. falciparum field isolate 9775.
Assay [7] addresses erythrocytes infected with P. falciparum field isolate 9605.
Assay [8] addresses erythrocytes infected with P. falciparum field isolate 10936.

B1: MGC37 (antibody)
VH: EVQLVESGGDLVQPGGSLRLSCAASGFTFRNYWMSWVRQTPGKGLEWVANIRQDGSEKYYVDSVKGRFTISRDNAKNLLYLQMNSLRAEDTAVYYCVRDKFCSDENHMHVADDLPRPSISPEPGTVIPLGSHVTFVCRGPVGVQTFRLEKDRRSTYNDTEDVSQPSPSESEARFRIDSVTEGNAGLYRCVYYKPPKWSDQSDFLELLVKGEDVTWALFPHCGADGEDSDYYMDVWGKGTTVTVSS
VL: DIQLTQSPSTLSASVGDRVTISCRASQRLSRSLAWYQQRPRKAPNLLIYKASPLEIGGPSRFTGSGSGTEFTLTISSLQPDDSATYYCQQYSNYSYSFGQGTKLEIR
As to B1, the % parasite recognition in assay [1] came to 7.5%; in assay [2], 5.8%; in assay [3], 9.9%; in assay [4] it was 7.2%; in assay [5] it was 51.8%; in assay [6], 4%. The % parasite recognition was 22.2% in assay [7] and 4.1% in assay [8].

B2: MGD35 (antibody)
VH: QVQLQESGPGLVKPSGTLSLTCAVSGASISSINWWSWVRQTPEKGLEWIGQIHHNGSTNYNPSLKSRVAISVDKSKNQFSLKLTSFTAADTAVYYCATASSLKSQRDTNLPRPSLSAEPGTVIPLGSPVTFVCRGPVGVHTFRLERAGRSTYNDTEDVSHPSPSESEARFRIDSVSEGNAGPYRCVYYKSSKWSEESYCLDLLVKTEDVTWARPQPQLDPRACPQGDLRISTDFYYMDVWGKGTTVTVSS
VL: AIRMTQSPSSLSASTGDRVTITCRTSQAIGTYLAWYQQNPGKAPNLLIYNASTLQSGVPSRFSASGSGTDFTLTISGLQSDDFVTYFCQHYYNYPPAFGQGTRLEIQ
Regarding B2, the results for the % parasite recognition in assay [4], in assay [5] and in assay [7] were 6.1%, 6.3% and 3.6%, respectively.

B3: MGD23 (antibody)
VH: QVQLQESGPGLVKPSGTLSLTCSVSGGSISSNKWWSWVRQSPGKGLEWIGEVYQTGITNYNPSLKGRVTMSVDKSKNQFSLRLTSVTAADTAVYYCATISQLRPQGDTEDLPRPSLSAEPGTVIPLGSHVTFVCRGPAGVETFRLERESRFTYNDTEDVSQASPSESEARFRIDSVSEGNAGPYRCLYYKARKWSDQSDYLELLVKGADVTWALPQSQLAPRACPQGELRISTDVFSMNVWGNGTTVTVSS
VL: AVRVTQSPTSLSASTGDRVTITCRTSQYVGNYLDWYQQKPGKAPKLLIHGVSTLQNGVPSRFSGSASGTDFTLNITCLQSEDSATYYCQQYYTSPPDFGQGTRLEIK
Take B3: the % parasite recognition in assay [1] amounted to 3.4%; in assay [2], 6.3%; in assay [3], 11.4%; in assay [4] it was 5.7%; in assay [5] it was 7.8%; in assay [6] it was 7.3%. For the same molecule, the values for the % parasite recognition in assay [7] and in assay [8] were 14.7% and 4.3%, respectively.

B4: MGC1 (antibody)
VH: EVQLVESGGGLVQPGGSLRLSCVASGFNFRKSWMGWVRQAPGKGLEWVANIREDGSESFYADSVKGRFTVSRDNAKKSLYLHINSLRAEDTAVYYCARDRFCNDDEIHRHGQEDLPRPSISAAEGTVIPLGSHVTFVCRGPVGVQTFRLEKDSRSIYNDTENVSQPSPSESEARFRIDSVSEGNAGLYRCVYYKAPKWSAQSDYLELLVKGQEVTWALFTSCGGDGEEPDYDMDVRGKGTTVTVSS
VL: DIVMTQSPDSLAVSLGERATINCKSSQSVLYRSKNKNYLAWFQQKPGQPPKVLIYSTSTRASGVPDRFTGSGSGTDFTLTISSLQAEDVAVYYCLQYYITPYTFGQGTKLEIK
As for B4, the % parasite recognition in assay [1] is 1.4%; in assay [2], 3.4%; in assay [3], 14.9%; in assay [4], 6.7%; in assay [5], 32.7%; in assay [6] it was 5.7%. The % parasite recognition was determined as 19.5% in assay [7] and 2% in assay [8].

B5: MGC35 (antibody)
VH: EVQLVESGGGLVQPGGSLRLSCEASGFNSRSYWMTWVRQAPGKGLEWVASINQDATEKNYVDSVKGRFTISRDTAKNSLYLQMNSLRAEDTAVYYCARDRFCGGESHLHGQEDLPRPSISAEPGSVIPLGSLVTFVCRGPVGVHTFRLERGWTYNDTEDVSQAGPSESEARFRMDSVREGNAGLYRCIYYKPPKWSEQSAYLELRVKGGDVTWALLTYCGGDGEESDYPMDVWGKGTTVTVSS
VL: QTVVTQEPSLTVSPGGTVTLTCASSTGPVTSAYYPNWFQQKPGQAPRSLIYNINKKHSWTPDRFSGSLLGGKAALTLSGVQPEDEADYYCLLSCGGAQPWVFGGGTKLTVQ
Consider B5, for which the % parasite recognition in assay [1] was found to be 7.4%; in assay [2] it was 3.6%; in assay [3], 19.5%; in assay [4] it was 6.5%; in assay [5] it was 3.2%; in assay [6] it was 7.2%. Further, the % parasite recognition in assay [7] amounted to 15.9%; in assay [8], 2.5%.

B6: MGC36 (antibody)
VH: EVVLVESGGGLVQPGGSLRLSCEASGFNSRSYWMTWVRQAPGKGLEWVASINQDGTEKNYVDSVKGRFTISRDSAKNSLYLQMSSLRADDTAVYYCARDRFCGGESHLHGEEDLPRPSISAEPDTVIPLGSHVTFVCRGPVGVHTFRLERGWRYNDTEDVSQAGPSESEARFRIDSVREGNAGLYRCIYYIAPKWSEQSDYLELRVKGGDVTWALLTYCGGDGEESDYPMDVWGKGTTVTVSS
VL: QTVVTQEPSLTVSPGGTVTLTCASSTGPVTSAYYPNWFQQKPGQAPRSLIYSINKKHSWTPARFSGSLLGGKAALTLSGVQPEDEADYYCLLSCGGAQPWVFGGGTKLTVQ
Turning to B6, the % parasite recognition in assay [1] is 8.6%; in assay [2] it was 4.6%; in assay [3], 12.4%; in assay [4] it was 6.9%; in assay [5] it was 17.9%; in assay [6], 6.2%. In addition, the values for the % parasite recognition in assay [7] and in assay [8] were 17.9% and 2.7%, respectively.

B7: MGC2 (antibody)
VH: EVQLVESGGGLVQPGGSLRLSCAASGFTFSNFWMGWVRQTPGKGLEWVANIKEDGSEKYYVDSVRGRFTISRDSAKNSLYLQMNSLRAEDTAVYYCVRERFCSNHIHKEEHLPRPSISPEPGTVITLGSHVTFVCRGPVGVQTFRLEKDSRSTYNDTEDVSQPSPSESEARFRIDSVSEGYAGLYRCLYYKPPKWSEQSDYLELLVKGDDVTWALYPSCGGDGEASDYNMDVWGKGTTVTVSS
VL: DIQMTQSPSTLSASVGDRVTISCRASQRFSGWLAWYQQKPGKAPNLLIYKASPLAGGGPSRFSGSGSGTDFTLTISSLQPDDSATYYCQHYSNYSYTFGQGTKLEIR
For the molecule B7, the % parasite recognition in assay [1] worked out at 2.6%; in assay [2], 1.5%; in assay [3], 28.8%; in assay [4], 5.6%; in assay [5] it was 11.9%; in assay [6], 2.9%. Further, the % parasite recognition in assay [7] was found to be 22.4%; in assay [8], 2.8%.
